This note sets out measurements from article PMC11332595.

For data set [1], the target named is MapSPARTA (binary complex of TIR-APAZ and Ago), wild type (Maribacter polysiphoniae). Put plainly: cryo-EM structure.
The target is the same in data set [2]. Put plainly: cryo-EM structure. The source holds these as a separate data set.
For data set [3] the target is unchanged. Put plainly: SEC. For orientation: SEC sorts molecules by how far they enter the pores of the column.
Data set [4] has the same target. Put plainly: cryo-EM structure. This is another data set of the same source.
Data set [5] deals with MapSPARTA V113R (TIR-APAZ V113R with Ago) (Maribacter polysiphoniae). In words: SEC.
In data set [6] the target is MapSPARTA V113R/D106R/D111R (TIR-APAZ triple mutant with Ago) (Maribacter polysiphoniae). In words: SEC.
Data set [7] has as its target T1, MapSPARTA WT (Ago + TIR-APAZ) (Maribacter polysiphoniae, UniProt A0A316E3U6;A0A316E683 1-507;1-450).
T1 sequence 1: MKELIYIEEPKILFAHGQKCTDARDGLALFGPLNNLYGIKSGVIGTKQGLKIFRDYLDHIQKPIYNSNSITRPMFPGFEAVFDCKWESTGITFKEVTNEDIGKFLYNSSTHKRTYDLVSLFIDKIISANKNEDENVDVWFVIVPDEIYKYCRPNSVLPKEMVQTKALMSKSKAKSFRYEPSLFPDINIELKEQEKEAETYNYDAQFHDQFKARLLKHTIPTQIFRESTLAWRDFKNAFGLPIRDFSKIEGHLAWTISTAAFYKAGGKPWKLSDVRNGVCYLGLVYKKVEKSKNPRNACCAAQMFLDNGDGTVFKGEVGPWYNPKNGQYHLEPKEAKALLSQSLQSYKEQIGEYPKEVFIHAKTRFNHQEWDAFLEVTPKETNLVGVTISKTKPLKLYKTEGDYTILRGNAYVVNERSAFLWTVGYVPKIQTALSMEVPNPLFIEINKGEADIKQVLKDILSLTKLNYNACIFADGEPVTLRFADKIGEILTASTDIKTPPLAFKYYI
T1 sequence 2: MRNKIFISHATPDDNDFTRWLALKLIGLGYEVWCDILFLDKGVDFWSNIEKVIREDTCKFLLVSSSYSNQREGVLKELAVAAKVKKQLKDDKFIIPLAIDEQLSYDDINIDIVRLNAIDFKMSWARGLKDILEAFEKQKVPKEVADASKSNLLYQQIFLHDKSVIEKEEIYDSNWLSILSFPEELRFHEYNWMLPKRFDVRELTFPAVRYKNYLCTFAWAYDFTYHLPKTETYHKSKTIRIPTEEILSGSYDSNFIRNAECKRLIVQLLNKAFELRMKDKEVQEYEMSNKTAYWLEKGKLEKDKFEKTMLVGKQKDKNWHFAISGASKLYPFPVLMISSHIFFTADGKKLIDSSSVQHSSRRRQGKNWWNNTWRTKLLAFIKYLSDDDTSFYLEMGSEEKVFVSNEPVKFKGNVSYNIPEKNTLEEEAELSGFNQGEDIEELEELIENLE
Put plainly: BLI.

Usually stoichiometry N stands for the number of molecules, sites or subunits per partner or assembly. For the molecule “MapSPARTA (binary complex of TIR-APAZ and Ago), wild type”, the stoichiometry N came to 4 in data set [1], 4 in data set [2], 4 in data set [3] and 2 in data set [4]. “MapSPARTA V113R (TIR-APAZ V113R with Ago) (complex)”: in data set [5], the stoichiometry N was 2. As for “MapSPARTA V113R/D106R/D111R (TIR-APAZ triple mutant with Ago) (complex)”, the stoichiometry N in data set [6] amounted to 2.

B1: guide RNA + biotinylated target DNA (BLI) (DNA:RNA)
RNA: UGACGGCUCUAAUCUAUUAGU
DNA: CAACTAATAGATTAGAGCCGTCAAT
modifications: 5'-phosphate on guide RNA
Broadly, the Kd is the concentration at which binding is half-saturated. On to B1, for which the Kd in data set [7] was determined as 13.5 nM.
